Results on ten molecules are retold here after patent publication US12240882B2, “Fusion proteins comprising an engineered knottin peptide and uses thereof” (The Board of Trustees of the Leland Stanford Junior …, priority 2010, dated 2025).

Residue numbers refer to the chain shown, from its start. Numbers in names are those of the source. Entries after “also recorded” stand apart in the source; their conditions may differ. Ends that are not written are not given here.

For series [1], the target named is αvβ3 integrin (Homo sapiens, UniProt P05106+P06756). The series can be described thus: cRGD competition of EETI 2.5D-Axl binding to K562-αvβ3 cells.
Series [2] deals with HUVECs. In words: HUVEC proliferation assay stimulated with HGF. Particulars: 0.5 nM HGF.
For series [3], the target named is T1, Met receptor (Homo sapiens, UniProt P08581).
T1 construct: PC3 cells express medium levels of the αvβ3 integrin and Met; endogenous in cells; host or cells: PC3 prostate cancer cells
In words: Met receptor phosphorylation assay in PC3 cells. Particulars: 0.3 nM HGF, Western blot. It counts as cell-based. The protocol: A Met receptor phosphorylation assay was performed in PC3 (prostate cancer cells). Met receptor phosphorylation was assayed by Western blot after stimulation with 0.3 nM HGF. […] (Note: PC3 cells express medium levels of the αvβ3 integrin and Met, and low levels of the α5β1 integrin).
(Immunoblotting shows a protein as a band on a membrane.)

Series [4] deals with U87MG cells. The series can be described thus: Binding of AgRP mutant 7A to U87MG cells. The settings on record: read-out: KD against U87MG cells. The source says: (§1) The αvβ3 integrin receptor is over-expressed on many solid tumor cells making it an important cancer target. The Agouti related protein (AgRP), a cystine-knot peptide, contains four disulfide bonds and four solvent-exposed loops. It was engineered to target αvβ3 integrin receptors with pM binding affinity.

Series [5] concerns K562-αvβ3 cells. In words: Binding of AgRP mutant 7A to K562-αvβ3 cells. The settings on record: read-out: KD against K562-αvβ3 cells.
Excerpt: as §1

Series [6] has as its system human umbilical vein endothelial cells (HUVECs). In words: HUVEC cell binding assay of knottin-NK1 fusions. Particulars: read-out: binding affinity (KD) towards HUVECs. The source says: HUVECs express medium levels of the αvβ3, αvβ5 integrins, the Met receptor, and a high level of the […] integrin.
Series [7] is described as follows: Serum stability, Western Blot. The series is classed as in vitro ADME. The settings on record: 40% human serum, 37° C., 7 days. The protocol: Serum stability of AgRp7A-M2.2(D127A) and EETI2.5F-M2.2(D127A) was shown when the proteins were incubated with 40% human serum at 37° C. for over several days. Samples were analyzed by Western Blot and detected with an antibody against the FLAG epitope tag.

Series [8] has as its target human Met-Fc (Homo sapiens, UniProt P08581). In words: Dual receptor direct binding assay on K562-αvβ3 cells. Particulars: Met-Fc 220 nM, proteins 2 or 20 nM. The protocol: In this experiment, a mixture of soluble Alexa-488 labeled human Met-Fc (220 nM) and the mono-specific and the multi-specific proteins (2 or 20 nM) were added to K562-αvβ3 cells. Binding was detected by flow cytometry.

The target in series [9] is T2, Gas6 (Homo sapiens, UniProt Q14393).
T2 sequence (Q14393 31-678): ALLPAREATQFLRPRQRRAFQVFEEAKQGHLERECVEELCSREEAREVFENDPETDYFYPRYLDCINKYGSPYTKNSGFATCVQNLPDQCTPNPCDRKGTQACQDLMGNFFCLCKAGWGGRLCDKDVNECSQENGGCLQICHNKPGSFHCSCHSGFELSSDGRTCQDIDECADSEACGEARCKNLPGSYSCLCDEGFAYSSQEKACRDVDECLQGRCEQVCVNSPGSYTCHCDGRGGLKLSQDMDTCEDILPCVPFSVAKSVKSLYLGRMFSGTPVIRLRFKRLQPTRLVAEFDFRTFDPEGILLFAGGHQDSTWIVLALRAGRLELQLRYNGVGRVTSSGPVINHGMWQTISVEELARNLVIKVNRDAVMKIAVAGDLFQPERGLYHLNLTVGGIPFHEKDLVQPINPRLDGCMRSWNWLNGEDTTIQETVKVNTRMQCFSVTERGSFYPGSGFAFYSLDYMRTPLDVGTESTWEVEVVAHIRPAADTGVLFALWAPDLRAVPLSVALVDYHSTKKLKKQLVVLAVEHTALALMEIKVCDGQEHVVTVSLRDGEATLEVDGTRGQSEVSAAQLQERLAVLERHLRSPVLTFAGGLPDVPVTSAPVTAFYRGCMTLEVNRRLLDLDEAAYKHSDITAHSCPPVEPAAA
The series can be described thus: Yeast surface display equilibrium binding to soluble Gas6. On the set-up: purchased R&D Systems.

Series [10] is described as follows: Melting temperature of engineered Axl Ig1 clone. Particulars: versus wild-type Axl Ig1.
For series [11], the target named is T2, Gas6. In words: Equilibrium binding of engineered Axl Ig1 clones to Gas6. Particulars: binding to Gas6, versus wild-type Axl Ig1.

As to cRGD [reference compound], the “binding of EETI 2.5D-Axl to K562-αvβ3 cells with molar excess of cRGD” value in [1] is given as “inhibits the binding”.

Regarding “EETI RGD mutant binding αvβ3, αvβ5, α5β1, SEQ ID NO: 33 GCPRPRGDNPPLTCKQDSDCLAGCVCGPNGFCG (ends and bridges not checked; cysteine pairing not given here) [EETI2.5F]”, the “inhibitory effect on HUVEC proliferation” value in [2] is given as “good inhibition”. In addition, the “inhibition of HUVEC proliferation” value in series [2] (1 μM, cells alone=90% inhibition) worked out at 70%.

One may read the Kd as the equilibrium constant for the complex coming apart. In the case of “AgRP mutant, SEQ ID NO: 36 GCVRLHESCLGQQVPCCDPAATCYCSGRGDNDLVCYCR (ends and bridges not checked; cysteine pairing not given here) [AgRp7A]”, the “inhibition of Met phosphorylation” value in series [3] is “did not show inhibition”. In addition, the values for the Kd in series [4] and in series [5] were 0.78 nM and 0.89 nM, respectively. Also, the “inhibitory effect on HUVEC proliferation” value in series [2] is “little inhibitory effect”.

B1: EETI2.5F-M2.2(D127A): EETI 2.5F knottin fused to NK1 fragment of HGF (M2.2 (D127A)), SEQ ID NO: 89 (protein)
chain: DYKDDDDKPRGCPRPRGDNPPLTCSQDSDCLAGCVCGPNGFCGYAEGQRKRRNTIHEFKKSAKTTLIKIDPALKIKTEKVNTADQCANRCTRNKGLPFTCKAFVFDKARKRCLWFPFNSMSSGVKKEFGHEFDLYENKDYIRACIIGNGRSYRGTVSITKSGIKCQPWSSMIPHEHSFLPSSYRGEDLRENYCRNPRGEEGGPWCFTSDPEVRYEVCDIPQCSEVETRHHHHHH
For B1, in [6], the equilibrium dissociation constant (Kd) worked out at 4.7 ± 0.6 nM. The “amount of intact fusion protein in serum” value in series [7] is “No significant decrease”. The “simultaneous binding to soluble Met-Fc and αvβ3 integrin on cells” value (“simultaneous binding” for short) in series [8] was “able to bind to soluble Met-Fc”. In series [2], the “inhibitory effect on HUVEC proliferation” value was “higher inhibitory effects”.

B2: EETI2.5F-M2.2: EETI 2.5F knottin fused to NK1 fragment of HGF (M2.2), SEQ ID NO: 88 (protein)
chain: B1 chain with A143D
In the case of B2, the “simultaneous binding” value in [8] was “able to bind to soluble Met-Fc”.

B3: Wt EETI-Axl: Wild-type EETI-II fused to the Axl Ig1 N-terminus (protein)
chain: GCPRILMRCKQDSDCLAGCVCGPNGFCGSRGTQAEESPFVGNPGNITGARGLTGTLRCQLQVQGEPPEVHWLRDGQILELADSTQTQVPLGEDEQDDWIVVSQLRITSLQLSDTGQYQCLVFLGHQTFVSQPGYVGLEGLP
Turning to B3, in series [9], the “affinity / binding to Gas6” value is listed as “same affinity as wild-type Axl”.

B4: Axl S6-1: engineered Axl Ig1, G32S, D87G, V92A, G127R, SEQ ID NO: 62 (protein)
chain: APRGTQAEESPFVSNPGNITGARGLTGTLRCQLQVQGEPPEVHWLRDGQILELADSTQTQVPLGEDEQGDWIVASQLRITSLQLSDTGQYQCLVFLGHQTFVSQPGYVRLEGLP
As for B4, the “improvement in melting temperature over wild-type” value in [10] is 13 °C. For the same molecule, the “fold improvement in equilibrium binding over wild-type” value in [11] is recorded as 20 fold.

B5: AgRp7A-M2.2(D127A): AgRP 7A knottin fused to NK1 fragment of HGF (M2.2 (D127A)), SEQ ID NO: 86 (protein)
chain: DYKDDDDKPRGCVRLHESCLGQQVPCCDPAATCYCSGRGDNDLVCYCRYAEGQRKRRNTIHEFKKSAKTTLIKIDPALKIKTEKVNTADQCANRCTRNKGLPFTCKAFVFDKARKRCLWFPFNSMSSGVKKEFGHEFDLYENKDYIRACIIGNGRSYRGTVSITKSGIKCQPWSSMIPHEHSFLPSSYRGEDLRENYCRNPRGEEGGPWCFTSDPEVRYEVCDIPQCSEVETRHHHHHH
For B5, the dissociation constant Kd in series [6] was determined as 9.4 ± 1 nM. Besides, the “amount of intact fusion protein in serum” value in series [7] is “No significant decrease”. Besides, the “simultaneous binding” value in series [8] was “able to bind to soluble Met-Fc”. Also, the “inhibitory effect on HUVEC proliferation” value in series [2] was “higher inhibitory effects”.

B6: AgRp7A-M2.2: AgRP 7A knottin fused to NK1 fragment of HGF (M2.2), SEQ ID NO: 85 (protein)
chain: B5 chain with A148D
B6: the “simultaneous binding” value in series [8] was “able to bind to soluble Met-Fc”.

B7: AgRp7A-Aras4: AgRP 7A knottin fused to NK1 fragment of HGF (Aras4), SEQ ID NO: 66 (protein)
chain: B5 chain with R54G, K79R, V85A, N98S, D144A, A148D, N153R, S156N, S175A, F211Y
Take B7: the “inhibition of Met phosphorylation” value in series [3] was “Dose dependent decreases; also recorded: slightly higher inhibitory effects”.
